Assay results from article PMC4900677.

Test system: T1, IFI16 (Homo sapiens), Q16666-2
T1 sequence: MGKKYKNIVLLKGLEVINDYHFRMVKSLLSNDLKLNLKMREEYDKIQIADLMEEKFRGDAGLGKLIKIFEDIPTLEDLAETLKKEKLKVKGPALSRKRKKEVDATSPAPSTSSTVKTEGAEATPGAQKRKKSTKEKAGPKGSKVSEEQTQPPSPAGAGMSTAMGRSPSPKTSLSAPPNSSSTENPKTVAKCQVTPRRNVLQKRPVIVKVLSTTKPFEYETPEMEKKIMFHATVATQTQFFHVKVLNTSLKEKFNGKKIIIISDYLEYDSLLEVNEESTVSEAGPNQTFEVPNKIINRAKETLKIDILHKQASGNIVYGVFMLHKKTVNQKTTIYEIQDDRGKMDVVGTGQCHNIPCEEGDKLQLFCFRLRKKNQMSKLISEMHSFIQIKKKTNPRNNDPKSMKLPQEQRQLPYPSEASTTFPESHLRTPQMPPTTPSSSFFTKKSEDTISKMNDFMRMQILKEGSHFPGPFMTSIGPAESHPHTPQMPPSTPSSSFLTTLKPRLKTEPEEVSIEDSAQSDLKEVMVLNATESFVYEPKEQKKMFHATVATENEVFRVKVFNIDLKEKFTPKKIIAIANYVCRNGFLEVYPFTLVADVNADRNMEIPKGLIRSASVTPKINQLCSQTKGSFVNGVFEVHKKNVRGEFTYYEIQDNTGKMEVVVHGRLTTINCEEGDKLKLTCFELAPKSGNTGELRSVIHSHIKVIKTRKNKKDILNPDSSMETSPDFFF
Assay: EMSA
Settings: EMSA: 5 mM Tris-HCl pH 7.0, 1 mM EDTA, 50 mM KCl, 0.01% Triton X-100, 4 C, 15 min; gel 0.33x TBE (native PAGE with 50 mM KCl)

| Sequence | binding signal (% bound at protein:DNA 4:1) |
| --- | --- |
| GGGTTAGGGTTAGGGTTAGGGTTAGGGTTAGGGTTAGGGTTAGGGTTAGGG (double strand) [DS HTEL] | 50 |
| TTGGGGCGCTTATGGGGAGGGTGGGGAGGGTGGGGAAGGTGGGGAGGAGACT (double strand) [DS NHEIII] | 50 |
